# Laboratory results published in patent publication US20040233833A1, “Methods for identifying compounds with thrapeutic potential for treatment of central Neurodegenerative diseases resulting from abnormal protein or peptide accumulation” (priority 2001, published 2004).
# Columns and labels:
# [1] = target: 20S proteasome (human red blood cell proteasomes) (human); assay: competition assay with REGα(N146Y)/REGβ(N135Y) as competitor for the proteasome
# [2] = target: 20S proteasome (human red blood cell proteasomes) (human); assay: cell-based or functional assay
# REGγ (wild-type), sequence (P61289 whole entry): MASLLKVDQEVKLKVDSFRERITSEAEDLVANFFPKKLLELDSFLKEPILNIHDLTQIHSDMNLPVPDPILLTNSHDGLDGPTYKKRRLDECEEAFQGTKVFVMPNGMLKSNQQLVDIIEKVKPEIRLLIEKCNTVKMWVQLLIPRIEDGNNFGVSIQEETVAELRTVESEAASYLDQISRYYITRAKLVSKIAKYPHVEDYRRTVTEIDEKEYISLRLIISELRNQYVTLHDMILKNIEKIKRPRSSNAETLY
Relative affinity for proteasome (% of wild-type REGγ) [1],Substance,other results
75,REGγ(K188Q) (from UniProt P61289 1-254),–
60,REGγ(K188C) (from UniProt P61289 1-254),–
40,REGγ(K188P) (from UniProt P61289 1-254),–
50,REGγ(K188S) (from UniProt P61289 1-254),–
60,REGγ(K188A) (from UniProt P61289 1-254),–
90,REGγ(K188E) (from UniProt P61289 1-254),"rate of CT/PGPH labeling by 125I-YL3-VS, fold over proteasome alone [2]: 11.9 fold; rate of T-subunit labeling by 125I-YL3-VS, fold over proteasome alone [2]: 10.8 fold"
100,REGγ (wild-type) (from UniProt P61289 1-254),"half-life of the 49-residue peptide BBC1 with the proteasome [2]: 45 min; rate of CT/PGPH labeling by 125I-YL3-VS, fold over proteasome alone [2]: 4.4 fold; rate of T-subunit labeling by 125I-YL3-VS, fold over proteasome alone [2]: 4.7 fold"
60,REGγ(K188I) (from UniProt P61289 1-254),–
40,REGγ(K188F) (from UniProt P61289 1-254),–
0,REGα (from UniProt Q06323 1-249),–
50,REGγ(K188H) (from UniProt P61289 1-254),–
75,REGγ(K188R) (from UniProt P61289 1-254),–
90,REGγ(K188D) (from UniProt P61289 1-254),–
75,REGγ(K188N) (from UniProt P61289 1-254),–
